Test results: PMC10201434, “The DNA replication initiation protein DnaD recognises a specific strand of the Bacillus subtilis chromosome origin” (Nucleic Acids Research, 2021)

T1: DnaD (Bacillus subtilis 168CA, UniProt P39787 1-232)
T1 sequence: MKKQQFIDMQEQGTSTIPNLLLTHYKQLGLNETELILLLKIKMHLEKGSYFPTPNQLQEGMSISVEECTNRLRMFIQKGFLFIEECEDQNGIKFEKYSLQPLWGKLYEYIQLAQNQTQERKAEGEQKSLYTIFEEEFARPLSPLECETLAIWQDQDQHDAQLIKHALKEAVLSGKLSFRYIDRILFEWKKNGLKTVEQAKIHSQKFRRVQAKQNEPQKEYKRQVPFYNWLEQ

T2: DnaD F6A (Bacillus subtilis 168CA, UniProt P39787 1-232, F6A)
T2 sequence: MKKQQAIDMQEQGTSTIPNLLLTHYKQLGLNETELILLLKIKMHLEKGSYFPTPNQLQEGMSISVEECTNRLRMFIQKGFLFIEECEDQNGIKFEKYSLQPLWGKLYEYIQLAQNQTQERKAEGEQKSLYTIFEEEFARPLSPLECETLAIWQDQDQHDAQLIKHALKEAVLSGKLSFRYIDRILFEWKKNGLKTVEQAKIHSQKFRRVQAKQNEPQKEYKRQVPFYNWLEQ

T3: DnaD L22A (Bacillus subtilis 168CA, UniProt P39787 1-232, L22A)
T3 sequence: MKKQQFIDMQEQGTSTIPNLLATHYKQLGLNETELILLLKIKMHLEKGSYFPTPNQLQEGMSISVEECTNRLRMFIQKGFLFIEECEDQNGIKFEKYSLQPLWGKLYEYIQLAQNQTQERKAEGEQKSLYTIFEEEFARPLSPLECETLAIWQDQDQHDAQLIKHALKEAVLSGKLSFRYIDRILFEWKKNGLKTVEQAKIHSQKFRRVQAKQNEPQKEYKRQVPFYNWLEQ

T4: DnaD1-205 (Bacillus subtilis 168CA, UniProt P39787 1-205)
T4 sequence: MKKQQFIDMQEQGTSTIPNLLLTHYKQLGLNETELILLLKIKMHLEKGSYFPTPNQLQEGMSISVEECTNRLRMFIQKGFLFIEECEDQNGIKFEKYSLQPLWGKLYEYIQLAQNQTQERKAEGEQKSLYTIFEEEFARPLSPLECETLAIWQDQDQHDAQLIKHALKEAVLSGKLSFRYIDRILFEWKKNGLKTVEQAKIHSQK

T5: DnaD1-224 (Bacillus subtilis 168CA, UniProt P39787 1-224)
T5 sequence: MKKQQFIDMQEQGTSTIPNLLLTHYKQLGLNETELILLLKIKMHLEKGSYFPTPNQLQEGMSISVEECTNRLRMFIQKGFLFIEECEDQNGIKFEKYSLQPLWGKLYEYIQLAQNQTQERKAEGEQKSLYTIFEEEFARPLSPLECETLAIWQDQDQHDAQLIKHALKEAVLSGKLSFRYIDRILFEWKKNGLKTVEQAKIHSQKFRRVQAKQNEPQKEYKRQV


Key:
[1] = biological target: the molecule itself; assay: SEC; Superdex 200 Increase 10/300GL, 4°C; 40 mM Tris-HCl pH 8, 500 mM NaCl, 1 mM EDTA, 20 mM imidazole; 500 μl samples
DnaD = biological target: T1, DnaD; assay: fluorescence polarisation; FP: 10 mM HEPES-KOH pH 7.5, 1 mM Mg acetate, 100 mM K glutamate, 20 C, 1.875 nM DNA, DnaD up to 500 nM, 10 min; Bpa crosslinking conditions not in material; conditions: protein: recombinant; tags: His14-SUMO tag removed; chain copies: 4; label: fluorescein 5'
DnaD F6A = biological target: T2, DnaD F6A; assay: as above; conditions: protein: recombinant; tags: His14-SUMO tag removed; chain copies: 2; label: fluorescein 5'
DnaD L22A = biological target: T3, DnaD L22A; assay: as above; conditions: protein: recombinant; tags: His14-SUMO tag removed; label: fluorescein 5'
[2] = biological target: the molecule itself; assay: SEC-MALS; 20°C; 40 mM Tris-HCl pH 8, 500 mM NaCl, 1 mM EDTA, 20 mM imidazole, 2.5% v/v glycerol; 100 μl injected
DnaD1-205 = biological target: T4, DnaD1-205; assay: fluorescence polarisation; FP: 10 mM HEPES-KOH pH 7.5, 1 mM Mg acetate, 100 mM K glutamate, 20 C, 1.875 nM DNA, DnaD up to 500 nM, 10 min; Bpa crosslinking conditions not in material; conditions: protein: recombinant; tags: His14-SUMO tag removed; chain copies: 4; label: fluorescein 5'
DnaD1-224 = biological target: T5, DnaD1-224; assay: as above; conditions: protein: recombinant; tags: His14-SUMO tag removed; chain copies: 4; label: fluorescein 5'

Row | Binder | binding result (DnaD) | further results
1 | DnaD^1-224 (truncation lacking the DnaB interaction region, the last eight residues) (domain or fragment, Bacillus subtilis, UniProt P39787 1-224, looked up, DnaD, Bacillus subtilis 168CA, residues 1-224; variant lacking the last eight amino acid residues of the DnaD^CTT; made from pSF17; source: E. coli BL21(DE3)-pLysS, purified (HisTrap, His14-SUMO tag digested, second HisTrap flow-through)) MKKQQFIDMQEQGTSTIPNLLLTHYKQLGLNETELILLLKIKMHLEKGSYFPTPNQLQEGMSISVEECTNRLRMFIQKGFLFIEECEDQNGIKFEKYSLQPLWGKLYEYIQLAQNQTQERKAEGEQKSLYTIFEEEFARPLSPLECETLAIWQDQDQHDAQLIKHALKEAVLSGKLSFRYIDRILFEWKKNGLKTVEQAKIHSQKFRRVQAKQNEPQKEYKRQV | – | stoichiometry N [1]: 4
2 | CTCCTCCCCTCCTCCCCC (ssDNA) [TnnT spacing (oCW1494)] | binds | –
3 | TCACTCAAAGGCGGTAATAC (ssDNA) [ssDNA 1 (oCW1036)] | binds | –
4 | GTATTACCGCCTTTGAGTGA (ssDNA) [ssDNA 2 (oCW1124)] | binds | –
5 | CTCCTCCCCCCCCTCCTC (ssDNA) [polyC with two TnnT (oCW1128)] | binds | binding result (DnaD F6A): no binding; binding result (DnaD L22A): no binding
6 | CTCCTCCCCCCCTCCTCC (ssDNA) [TnnT spacing (oCW1491)] | binds | –
7 | DnaD^1-205 (truncation lacking the entire C-terminal tail) (domain or fragment, Bacillus subtilis, UniProt P39787 1-205, looked up, DnaD, Bacillus subtilis 168CA, residues 1-205; variant lacking the entire DnaD^CTT; made from pSF17; source: E. coli BL21(DE3)-pLysS, purified (HisTrap, His14-SUMO tag digested, second HisTrap flow-through)) MKKQQFIDMQEQGTSTIPNLLLTHYKQLGLNETELILLLKIKMHLEKGSYFPTPNQLQEGMSISVEECTNRLRMFIQKGFLFIEECEDQNGIKFEKYSLQPLWGKLYEYIQLAQNQTQERKAEGEQKSLYTIFEEEFARPLSPLECETLAIWQDQDQHDAQLIKHALKEAVLSGKLSFRYIDRILFEWKKNGLKTVEQAKIHSQK | – | stoichiometry N [2]: 4
8 | CTACTATTACTTCTACTA (ssDNA) [DRE (oCW1039)] | binds | –
9 | CTCCTCCCTCCTCCCCCC (ssDNA) [TnnT spacing (oCW1495)] | binds | –
10 | CTCCTCCCCCTCCTCCCC (ssDNA) [TnnT spacing (oCW1493)] | binds | –
11 | TTTTTTTTTTTTTTTTTTTTTTTTTTTTTTTTTTTTTTTT (ssDNA) [polyT(40) (oCW837)] | binds | binding result (DnaD1-205): no binding; binding result (DnaD1-224): binds
12 | CTCCTCCCCCCTCCTCCC (ssDNA) [TnnT spacing (oCW1492)] | binds | –
13 | TTTTTTTTTT (ssDNA) [polyT(10) (oCW834)] | no binding | –
14 | CTCCTCCTCCTCCCCCCC (ssDNA) [TnnT spacing (oCW1496)] | binds | –
15 | CTCCTCTCCTCCCCCCCC (ssDNA) [TnnT spacing (oCW1497)] | binds | –
16 | CTCCTTCCTCCCCCCCCC (ssDNA) [TnnT juxtaposed (oCW1498)] | binds | –
17 | TTTTTTTTTTTTTTT (ssDNA) [polyT(15) (oCW1029)] | binds | –
